{"source": "paper PMC3302801", "about": "“Regulation of the vapBC-1 Toxin-Antitoxin Locus in Nontypeable Haemophilus influenzae”", "molecules": {"B1": {"name": "50US (dsDNA)", "DNA 1": "AACAACGGTAATTTGATCTTCTTACTTGCATACAGCAATTGAAATGATTA", "DNA 2": "TAATCATTTCAATTGCTGTATGCAAGTAAGAAGATCAAATTACCGTTGTT"}, "B2": {"name": "50TIR (dsDNA)", "DNA 1": "AATGATTAGTATATACTTATTAAATACATAGTATATACGAGAGGGTAAAT", "DNA 2": "ATTTACCCTCTCGTATATACTATGTATTTAATAAGTATATACTAATCATT"}}, "key": {"[1]": {"biological_target": "T1, VapB-1 (Haemophilus influenzae (nontypeable, R2866)) (UniProt E4QWH3)", "T1 sequence": "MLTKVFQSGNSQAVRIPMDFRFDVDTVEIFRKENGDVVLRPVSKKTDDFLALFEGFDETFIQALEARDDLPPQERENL", "experiment": "DNase I footprinting", "conditions": "EMSA: 20 mM HEPES pH 7.5, 100 mM NaCl, 0.1 mM EDTA, 1 mM DTT, 50 ug/mL BSA, 5% glycerol, 1 nM DNA, 25 C (gel 4 C); DNase I: 25 mM Tris-HCl pH 7.4, 70 mM KCl …"}, "VapB-1 [2]": {"biological_target": "T2, VapB-1 (Haemophilus influenzae (nontypeable, …, UniProt E4QWH3 1-78))", "T2 sequence": "T1 sequence", "experiment": "EMSA; 300:1; EMSA: 20 mM HEPES pH 7.5, 100 mM NaCl, 0.1 mM EDTA, 1 mM DTT, 50 ug/mL BSA, 5% glycerol, 1 nM DNA, 25 C (gel 4 C); DNase I: 25 mM Tris-HCl pH 7.4, 70 mM KCl, 7", "conditions": "protein: recombinant; tags: C-terminal polyhistidine (pET24b); chain copies: 2; blunt"}, "VapB-1 [3]": {"biological_target": "T2, VapB-1", "experiment": "EMSA; up to 300:1; EMSA: 20 mM HEPES pH 7.5, 100 mM NaCl, 0.1 mM EDTA, 1 mM DTT, 50 ug/mL BSA, 5% glycerol, 1 nM DNA, 25 C (gel 4 C); DNase I: 25 mM Tris-HCl pH 7.4, 70 mM KCl, 7", "conditions": "protein: recombinant; tags: C-terminal polyhistidine (pET24b); chain copies: 2; label: 5'-32P sense strand; blunt"}}}
{"molecule": "GTTAGGATCCTGAAACACTTTAGTAAGCATATTTACCCTCTCGTATATACTATGTATTTAATAAGTATATACTAATCATTTCAATTGCTGTATGCAAGTAAGAAGATCAAATTACCGTTGTTTTATTTAACCGCAATCATCGAGCGAATTCTAA (double strand) [153 bp vapBC-1 locus control region]", "values": [{"measurement": "binding", "setting": "[1]", "value": "no binding"}]}
{"molecule": "B1", "values": [{"measurement": "binding result", "setting": "VapB-1 [2]", "value": "no binding"}]}
{"molecule": "B2", "values": [{"measurement": "binding result", "setting": "VapB-1 [3]", "value": "no binding"}]}
